The values that follow come from patent publication US20240239898A1 (published 2024).

Assay [1] concerns the target recombinant human FcRn (heterodimer of FcRn heavy chain and beta2-microglobulin) (human) (UniProt P55899). As to the kind of experiment: BLI (Octet), biotinylated human FcRn on streptavidin sensors, pH 6, 1:1 model.
The target of assay [2] is T1, recombinant human FcRn (heterodimer of FcRn heavy chain and beta2-microglobulin) (human, UniProt P55899 24-297; P61769 21-119, limits assumed, biotinylated for the Octet assay (site not stated)).
T1 construct: In-house recombinant heterodimeric FcRn; captured as biotinylated protein on streptavidin sensors for BLI; also called hFcRn; Fc neonatal receptor
T1 sequence (P55899 24-297 limits assumed, chain 1 of 2): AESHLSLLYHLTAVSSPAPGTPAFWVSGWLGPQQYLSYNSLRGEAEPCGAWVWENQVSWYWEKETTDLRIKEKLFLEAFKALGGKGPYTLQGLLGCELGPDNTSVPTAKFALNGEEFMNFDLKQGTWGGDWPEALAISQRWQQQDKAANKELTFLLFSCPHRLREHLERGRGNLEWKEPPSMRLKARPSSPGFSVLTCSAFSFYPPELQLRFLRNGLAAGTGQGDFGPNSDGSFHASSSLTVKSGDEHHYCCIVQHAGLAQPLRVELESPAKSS
T1 sequence (P61769 21-119 limits assumed, chain 2 of 2): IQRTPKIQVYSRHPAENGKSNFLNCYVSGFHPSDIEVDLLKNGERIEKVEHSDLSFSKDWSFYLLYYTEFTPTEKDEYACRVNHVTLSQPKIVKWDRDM
The assay is described as above. On the procedure: (§1) Octet binding analysis. […] Biotinylated FcRn at 1 μg/mL in PBS buffer (pH 7.4) or 100 mM MES buffer (pH 6.0), with 3 mg/mL bovine serum albumin, 0.05% (vol/vol) and Tween 20 (1× Kinetics Buffer; ForteBio), were captured on streptavidin biosensors (ForteBio). The loaded biosensors were washed with assay buffer to remove any unbound protein, followed by association and dissociation measurements with serial dilutions of the different Fc variants or Fc fusion constructs. Octet software (version 7.2) was used to calculate kinetic parameters (kₒₙ and koff) and apparent affinities (KD) from a nonlinear fit based on the 1:1 binding kinetic model of the data, with the equation

Assay [3] deals with T1, recombinant human FcRn (heterodimer of …). As to the kind of experiment: BLI (Octet) on recombinant FcRn, pH 6 against neutral pH. On the procedure:
as §1
In general terms: In BLI a coated tip is dipped into the sample, and binding shifts an interference pattern.

Chain of recombinant human FcRn (heterodimer of FcRn heavy chain and beta2-microglobulin) (human) (P55899 24-297 limits assumed, chain 1 of 2): as the sequence (P55899 24-297 limits assumed, chain 1 of 2) above
Chain of recombinant human FcRn (heterodimer of FcRn heavy chain and beta2-microglobulin) (human) (P61769 21-119 limits assumed, chain 2 of 2, further chain): as the sequence (P61769 21-119 limits assumed, chain 2 of 2) above

A word on the Kd: it is the equilibrium constant for the complex coming apart. Regarding “MFc1 (C4), monomeric IgG4 Fc variant with YTE mutations (from UniProt P01861 111-327)”, the equilibrium dissociation constant (Kd) in assay [1] was determined as 370 nM.

B1: MFc4 (T1-S354E), monomeric IgG4 Fc variant (other)
chain: GPSVFLFPPKPKDTLMISRTPEVTCVVVDVSQEDPEVQFNWYVDGVEVHNAKTKPREEQFNSTYRVVSVLTVLHQDWLNGKEYKCKVSNKGLPSSIEKTISKAKGQPREPQVYTFPPEQEEMTKNQVSLRCLVKGFYPSDIAVEWESNGQPENNYKTTKPVLDSDGSFRLESRLTVDKSRWQEGNVFSCSVMHEACSYHLCKSLSLSL
notes: Engineered IgG4 CH2-CH3 with the CH3 monomer set, S354E and the half-life mutation set around residues 432-438 in place of YTE
As to B1, in assay [2], the Kd is 5 nM. Moreover, the “fold decrease from pH 6 binding to neutral pH binding” value in assay [3] is approximately 50 fold.

B2: MFc2 (C4n), monomeric IgG4 Fc variant with no YTE mutations (other)
chain: GPSVFLFPPKPKDTLMISRTPEVTCVVVDVSQEDPEVQFNWYVDGVEVHNAKTKPREEQFNSTYRVVSVLTVLHQDWLNGKEYKCKVSNKGLPSSIEKTISKAKGQPREPQVYTFPPSQEEMTKNQVSLRCLVKGFYPSDIAVEWESNGQPENNYKTTKPVLDSDGSFRLESRLTVDKSRWQEGNVFSCSVMHEALHNHYTQKSLSLSL
In the case of B2, the Kd in assay [2] was 3560 nM.

B3: MFc3, the S354E point mutant of MFc1 (other)
chain: GPSVFLFPPKPKDTLYITREPEVTCVVVDVSQEDPEVQFNWYVDGVEVHNAKTKPREEQFNSTYRVVSVLTVLHQDWLNGKEYKCKVSNKGLPSSIEKTISKAKGQPREPQVYTFPPEQEEMTKNQVSLRCLVKGFYPSDIAVEWESNGQPENNYKTTKPVLDSDGSFRLESRLTVDKSRWQEGNVFSCSVMHEALHNHYTQKSLSLSL
For the molecule B3, the Kd in assay [2] is 330 nM. Also, the “fold decrease from pH 6 binding to neutral pH binding” value in assay [3] is approximately 50 fold.
